The numbers were not newly measured in publication PMC7702019 (ACS chemical biology, 2020), which cites them from elsewhere.

Bridges are numbered along the chain shown (N, C = ends). Where no end group is shown, it is not given here.

For the series the following is noted: for amyloidogenicity: under normal conditions, rat and mouse amylin.

On to “bovine amylin: bovine amylin (CGTATCETQRLANFLAPSSNKLGAIFSPTKMGSNTY; ends and bridges not checked; cysteine pairing not given here; UniProt Q28207 37-72, looked up)”, for which the “amyloidogenicity relative to human amylin” value (porcine and bovine amylin) was “much less amyloidogenic than human amylin”. Turning to “H18R: H18R substitution of human amylin (literature) (KCNTATCATQRLANFLVRSSNNFGAILSSTNVGSNTY; ends and bridges not checked; cysteine pairing not given here; UniProt P10997 34-70, looked up, variant H18R)”, the “rate of amyloid formation in vitro” value (substitution in human amylin, in vitro) is listed as “reduces the rate of amyloid formation”. In the case of “Pramlintide: triple mutant of human amylin with A25, S28, and S29 replaced by Pro (KCNTATCATQRLANFLVHSSNNFGPILPPTNVGSNTY-NH2; disulfide 2-7; UniProt P10997 34-70, looked up, variant A25P S28P S29P)”, where the note is “pramlintide, reference not given”, the amyloidogenicity in vitro entry is “not amyloidogenic in vitro, except at high concentrations”.

On to “rat amylin: contains prolines at position 25, 28, and 29 and a H18R replacement relative to human amylin”, for which the amyloidogenicity entry is given as “not amyloidogenic under normal conditions”. The “amyloid formation in vitro” value (in vitro, reference not given) was “form amyloid in vitro, but only at very high non-physiological conditions”. As for “mouse amylin: identical sequence to rat amylin”, the amyloidogenicity result is “not amyloidogenic under normal conditions”.
